# Test results reported in the supplement of paper PMC9112550, “Optimization of the antimicrobial peptide Bac7 by deep mutational scanning” (BMC Biology, 2022).
# Tested on: Escherichia coli TOP10
# Assay: shrunken log2 fold change of peptide-encoding DNA abundance (4.5 h post-induction vs induction); higher = less antimicrobial activity (less host growth inhibition)
# Conditions: time post-induction: 4.5 h; library: site-saturation at positions 5, 18, 19, 20
# 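Also: peptides expressed intracellularly from a pBAD plasmid library in pooled LB shake-flask culture, induced with 0.3% L-arabinose, DNA abundance read by NGS, three biological replicates, DESeq2 with apeglm shrinkage.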
row,Sequence,shrunken log2 fold change
1,RRIRFRPPRLPRPRPRPIWSPRP,0.0199
2,RRIRMRPPRLPRPRPRPTFFPRP,0.229
3,RRIRQRPPRLPRPRPRPQFFPRP,-0.122
4,RRIRKRPPRLPRPRPRPGPHPRP,0.803
5,RRIRFRPPRLPRPRPRPDPMPRP,-0.196
6,RRIRERPPRLPRPRPRPTHLPRP,0.229
7,RRIRIRPPRLPRPRPRPLNDPRP,-0.351
8,RRIRERPPRLPRPRPRPAWWPRP,0.00222
9,RRIRKRPPRLPRPRPRPGVGPRP,0.818
10,RRIRGRPPRLPRPRPRPPTCPRP,0.172
11,RRIRHRPPRLPRPRPRPSISPRP,-0.727
12,RRIRLRPPRLPRPRPRPFHPPRP,-0.0146
13,RRIRGRPPRLPRPRPRPEDMPRP,1.02
14,RRIRIRPPRLPRPRPRPKVAPRP,0.283
15,RRIRVRPPRLPRPRPRPCDHPRP,-0.338
16,RRIRSRPPRLPRPRPRPVHTPRP,0.0158
17,RRIRSRPPRLPRPRPRPETHPRP,0.0531
18,RRIRHRPPRLPRPRPRPTCNPRP,-0.411
19,RRIRYRPPRLPRPRPRPEFPPRP,0.011
20,RRIRSRPPRLPRPRPRPLAFPRP,-0.0837
21,RRIRCRPPRLPRPRPRPRNHPRP,-0.0709
22,RRIRSRPPRLPRPRPRPLYDPRP,-0.113

row,Sequence,shrunken log2 fold change
1,RRIRWRPPRLPRPRPRPTYTPRP,-0.136
2,RRIRPRPPRLPRPRPRPIRYPRP,0.00275
3,RRIRIRPPRLPRPRPRPYSLPRP,-0.607
4,RRIRYRPPRLPRPRPRPRNGPRP,0.0466
5,RRIRIRPPRLPRPRPRPQTYPRP,-0.636
6,RRIRTRPPRLPRPRPRPLFRPRP,-0.353
7,RRIRMRPPRLPRPRPRPRREPRP,1.27
8,RRIRERPPRLPRPRPRPWKQPRP,-0.0582
9,RRIRLRPPRLPRPRPRPLFAPRP,0.233
10,RRIRERPPRLPRPRPRPHSCPRP,0.00997
11,RRIRVRPPRLPRPRPRPHISPRP,0.0648
12,RRIRFRPPRLPRPRPRPDAYPRP,-0.147
13,RRIRMRPPRLPRPRPRPNMAPRP,0.155
14,RRIRPRPPRLPRPRPRPDNMPRP,-0.337
15,RRIRHRPPRLPRPRPRPYQYPRP,-0.00963
16,RRIRERPPRLPRPRPRPPYKPRP,-0.107
17,RRIRFRPPRLPRPRPRPQARPRP,0.148
18,RRIRTRPPRLPRPRPRPLDEPRP,0.23
19,RRIRCRPPRLPRPRPRPPDQPRP,0.581
20,RRIRSRPPRLPRPRPRPGYDPRP,-0.125
21,RRIRGRPPRLPRPRPRPICNPRP,0.645
22,RRIRYRPPRLPRPRPRPWFAPRP,-0.497

row,Sequence,shrunken log2 fold change
1,RRIRLRPPRLPRPRPRPYADPRP,-0.135
2,RRIRTRPPRLPRPRPRPEPHPRP,0.0668
3,RRIRERPPRLPRPRPRPPEQPRP,0.251
4,RRIRGRPPRLPRPRPRPQEFPRP,0.27
5,RRIRGRPPRLPRPRPRPSLRPRP,0.57
6,RRIRCRPPRLPRPRPRPSKIPRP,-0.597
7,RRIRKRPPRLPRPRPRPCTCPRP,0.00906
8,RRIRNRPPRLPRPRPRPWWNPRP,-0.141
9,RRIRNRPPRLPRPRPRPELCPRP,0.232
10,RRIRTRPPRLPRPRPRPPIPPRP,0.128
11,RRIRNRPPRLPRPRPRPHFMPRP,-0.409
12,RRIRWRPPRLPRPRPRPHAGPRP,-0.0783
13,RRIRVRPPRLPRPRPRPATMPRP,-0.259
14,RRIRYRPPRLPRPRPRPICLPRP,-0.219
15,RRIRMRPPRLPRPRPRPCCTPRP,-0.229
16,RRIRQRPPRLPRPRPRPLVSPRP,0.00785
17,RRIRQRPPRLPRPRPRPIYPPRP,-0.121
18,RRIRKRPPRLPRPRPRPYSWPRP,0.0046
19,RRIRTRPPRLPRPRPRPRWWPRP,0.533
20,RRIRPRPPRLPRPRPRPTITPRP,-0.347
21,RRIRARPPRLPRPRPRPRAVPRP,1.11
22,RRIRIRPPRLPRPRPRPTCAPRP,-0.166

row,Sequence,shrunken log2 fold change
1,RRIRRRPPRLPRPRPRPMSTPRP,0.231
2,RRIRIRPPRLPRPRPRPSKWPRP,-0.539
3,RRIRHRPPRLPRPRPRPVHPPRP,-0.131
4,RRIRARPPRLPRPRPRPKPNPRP,0.736
5,RRIRYRPPRLPRPRPRPWRWPRP,-0.036
6,RRIRLRPPRLPRPRPRPWRLPRP,0.0799
7,RRIRSRPPRLPRPRPRPWYFPRP,-0.85
8,RRIRFRPPRLPRPRPRPNATPRP,0.0167
9,RRIRTRPPRLPRPRPRPSCSPRP,-0.16
10,RRIRNRPPRLPRPRPRPPDYPRP,-0.077
11,RRIRCRPPRLPRPRPRPSAVPRP,-0.0828
12,RRIRIRPPRLPRPRPRPRWDPRP,-0.12
13,RRIRIRPPRLPRPRPRPAAYPRP,-0.919
14,RRIRLRPPRLPRPRPRPYGHPRP,2.49
15,RRIRDRPPRLPRPRPRPDWHPRP,0.0912
16,RRIRCRPPRLPRPRPRPGTQPRP,0.00157
17,RRIRFRPPRLPRPRPRPKTYPRP,-0.578
18,RRIRKRPPRLPRPRPRPFTWPRP,1.37
19,RRIRWRPPRLPRPRPRPDCVPRP,0.197
20,RRIRSRPPRLPRPRPRPSTTPRP,-0.433
21,RRIRYRPPRLPRPRPRPNIPPRP,-1.09
22,RRIRRRPPRLPRPRPRPFRAPRP,0.251

row,Sequence,shrunken log2 fold change
1,RRIRMRPPRLPRPRPRPINLPRP,-0.0139
2,RRIRNRPPRLPRPRPRPMMYPRP,0.025
3,RRIRWRPPRLPRPRPRPVSMPRP,-0.00416
4,RRIRYRPPRLPRPRPRPRRHPRP,-0.103
5,RRIRQRPPRLPRPRPRPVTSPRP,-0.0277
6,RRIRDRPPRLPRPRPRPPAKPRP,0.443
7,RRIRFRPPRLPRPRPRPLDYPRP,-0.0121
8,RRIRIRPPRLPRPRPRPIPSPRP,-0.193
9,RRIRTRPPRLPRPRPRPYVWPRP,-0.131
10,RRIRPRPPRLPRPRPRPRCQPRP,0.273
11,RRIRDRPPRLPRPRPRPSVQPRP,0.111
12,RRIRNRPPRLPRPRPRPRTWPRP,0.415
13,RRIRQRPPRLPRPRPRPWFNPRP,-0.359
14,RRIRTRPPRLPRPRPRPECLPRP,0.105
15,RRIRYRPPRLPRPRPRPAVHPRP,-0.0328
16,RRIRIRPPRLPRPRPRPLNAPRP,-0.107
17,RRIRPRPPRLPRPRPRPSMRPRP,0.501
18,RRIRYRPPRLPRPRPRPKAMPRP,-0.0317
19,RRIRGRPPRLPRPRPRPEDFPRP,0.149
20,RRIRCRPPRLPRPRPRPDANPRP,-0.00199
21,RRIRDRPPRLPRPRPRPFWWPRP,0.641
